This note sets out measurements from patent publication US20260158070A1, “COMPOSITIONS AND METHODS FOR THE TREATMENT AND DIAGNOSIS OF CANCERS ASSOCIATED WITH SURFACE K-RAS” (UNIVERSITY OF MARYLAND, BALTIMORE, priority 2023, published 2026).

The subject of test [1] is Panc-1 (K-Ras G12D mutant). Kind of test: Growth and viability of pancreatic cancer cells cultured with R11.1.6 constructs (cell count, Trypan blue). The format is cell-based, human. To be noted: Panc-1, 20,000 cells/well, counted after 5 days of culture. The protocol:
We next evaluated growth as well as viability of two pancreatic cancer cell lines driven by either G12D (Panc-1) or G12C (MiaPaca-2) mutant K-Ras in vitro. We plated 20,000 cells/well in Dulbecco's modified Eagles media (DMEM) with 10% fetal bovine serum (FBS) in a flat bottom 96 well plate and counted cells after 5 days of culture. Viability of cells were calculated based on Trypan blue dye exclusion method, where dead cells were blue due to uptake of the viability dye and live cells were not stained. Viability was measured by using Countess II FL cell viability and cell counter instrument by Invitrogen (ThermoFisher USA).
Further evaluation of growth inhibition was performed with control Sulfolobus solfataricus-derived proteins of similar molecular weight. […] We started with 200,000 cells in a 96 well V-bottom plate and used BD phosflow buffer set III (BD biosciences, catalog number 558050) to stabilize and optimize the phosphor moiety. Next, we stained the cells with anti-phospho-Akt (ser473, Clone D9E) PE conjugated (Cell Signaling Technologies, Catalog number 5315S) at a concentration of 0.125 ug/100 ul or anti-phosho-ERK1/2, PE conjugated (ThermoFisher USA catalog number 12-9109-42) at a concentration of 0.125 ug/100 ul. Cells were washed in FACS staining buffer and run in a LSR Fortessa II flow cytometer (BD Biosciences, USA). Acquisition was done was using FACS DIVA software (BD Biosciences) and analysis was performed in FlowJo software (Tree Star, OR, USA). This was a significant finding as both Akt and ERK1/2 are important downstream molecules of K-Ras signaling, like that described for small molecule inhibitors of K-Ras (PMID: 12509763) (FIG. 1g).

For test [2], the system named is Panc-1 (G12D mutant K-Ras). Kind of test: Localization / surface binding of His-tagged constructs by anti-His flow cytometry and confocal microscopy. It counts as cell-based, human. From the text:
However, we considered that the small 7 kDa size of this scaffolding protein and disorganized cell membrane of malignantly transformed cells may allow for cytoplasmic penetration even in the absence of a cell penetrating peptide. To evaluate this possibility, we explored the cellular location of the R11.1.6 constructs by flow cytometry and confocal microscopy. For flow cytometry experiments, cells were stained first with Live/Dead far red fixable staining kit (ThermoFisher USA, catalog number L10120). Specifically, 0.2-0.4×10^6 cells were plated in a V bottom plate and 100 ul of the dye (1:1000 dilution of stock concentration following manufacturer's protocol) was added to each well and cells incubated in room temperature for 15 mins. Next cells were washed with PBS containing 2.5% FBS and 0.1% sodium azide (FACS buffer). Cells were then surface stained by adding 100 ul/well of anti-His PE labelled antibody (mouse anti-human antibody, BioLegend, CA, USA Catalog #362603) at a concentration of 10 μg/ml. Cells were washed twice with FACS buffer and fixed by cytofix buffer (BD biosciences catalog number 554655). […] Cells were acquired using LSR Fortessa II flow cytometer using FACS DIVA software (BD Biosciences USA) and analyzed using FlowJo (Tree Star USA). […]
(In general: Flow cytometry measures light scatter and fluorescence of single cells or particles in a stream.)

B1: mutated form of R11.1.6: R11.1.6 with codons in the regions that contact the K-RAS mutant scrambled to prevent binding (SEQ ID NO: 6) (protein)
chain: ATVKFTHQGEEKQVDISKIKFVWRKGYVRIWGYDEDGGWGAGKYVSEKDAPKELLQMLKKR
For the molecule B1, the growth and viability result in test [1] is “none of these control constructs could inhibit tumor growth”.

B2: E11.4.1: scaffold protein which binds human EGFR (SEQ ID NO: 8) (protein)
chain: ATVKFTYQGEEKQVDISKIMYVIRGGQRIAFGYDEGDGAWGDGIVSEKDAPKELLQMLEKQ
For the molecule B2, in test [2], the “binding to the tumor cell surface (anti-His staining)” value is listed as “bind to the surface of tumor cells”. Further, the growth and viability entry in test [1] is on record as “none of these control constructs could inhibit tumor growth”.

B3: M11.1.2: a scaffolding protein that binds mouse serum albumin (SEQ ID NO: 7) (protein)
chain: ATVKYTYRGEEKRVDISKIKWVNRWGQHLAFKYDKGGGAAGYGWVSEKDAPKELLQMLEKR
Take B3: in test [1], the growth and viability result was “none of these control constructs could inhibit tumor growth”.
